Consider 16 sequences from the nanobody polyreactivity screen of Harvey et al. (2022).

The data set is described as follows: yeast display, Sf9 membrane polyspecificity reagent, FACS + sequencing; frameworks hold sequencing errors. In short, it runs like this: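 Galactose induction of a Saccharomyces cerevisiae BJ5465 synthetic nanobody display library ran 36–48 hours. The cells were then stained for 1 hour at 4 °C with 10% biotinylated, detergent-solubilized Sf9 membrane reagent, pulled down on streptavidin microbeads and FACS-sorted into low and high (top ~1%) gates on expression and reagent-binding fluorescence. Labels for polyreactivity follow the gate of origin.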
Take “QVQLVESGGGLVQAGGSLRLSCAASGDIYDAYAMGWYRQAPGKERELVAAISRSGGSTYYSDSVKGRFTISRDNAKNTVYLLMNSLKPEDTAVYYCATRFSRRYVRYDYWGQGTQVTVSS”: the “polyreactivity (PSR sort gate)” value is given as “high polyreactivity”.
Take “QVQLVESGGGLVQAGGSLRLSCAASGDTFPKYAMGWYRQAPGKERELVAAITKRGGRTYYADSVKGRFTISRDNAKNTVYLQMNRVKPEDTAVYYCAVDLDGPEYSQVHYDYWGQGTQVTVSS”: the “polyreactivity (PSR sort gate)” value is listed as “high polyreactivity”.
“QVQLVESGGGLVQAGGSLRLSCAASGFAFSYYAMGWYRQAPGKEREFVASIDWSGGSTYYADSVKGRFTISRDNAKNIVYLQMNSLKPEDTAVYYCAAELDYFPGYDYWGQGTQVTVSS”: the “polyreactivity (PSR sort gate)” value was “low polyreactivity”.
The entry for “QVQLVESGGGLVQAGGSLRLSCAASGFIFADYAMGWYRQAHGKERELVAAITRSGGRTYYADSVKGRFTISRDTAKNTVYVQMNSLKPDDTAVYYCNAGYAHTYDYWGQGTQVTVSS” is “high polyreactivity”; for “QVQLVESGGGLVQAGGSLRLSCAASGFIFAEYAMGWYRQAPGKERELVATINIGGSTYYADSVKGRFTISRDNAKNTVYLQMTSLKPEDTAVYYCAAEFWWGDGSQGIYDYDYWGQGTQVSVSS” it is “low polyreactivity”; for “QVQLVESGGGLVQAGGSLRLSCAASGFIFAGYAMGWYRQAPGKERELVAAISGSGGRTYYADSVKGRFTISRDNAKNTVYLQMNSLKPEDTAVYYCNAGKQYRYDWGQGTQVTVSS” it is “high polyreactivity”.
The entry for “QVQLVESGGGLVQAGGSLRLSCAASGFIFAPNAMGWYRQAPGKERELVAAISHSGASTFYADSVKGRFTISRDNAKNTVYLQMNSLKPEDTAVYYCAAPPYYSYDYWGQGTQVTVSS” is “low polyreactivity”; for “QVQLVESGGGLVQAGGSLRLSCAASGFIFAPYAMGWYRQAPGKEREFVASITYGSDSTYYADSVKGRFTISRDNAKNTVYLQMNSLKPEDTAVYYCNREGWHYGPYGYWGQGTQVTVSS” it is “low polyreactivity”; for “QVQLVESGGGLVQAGGSLRLSCAASGFIFARNTMGWYRQAPGKERELVAAITKSGGSTNYADSVKGRFTISRDNAKNTVYLQMNSLKPEDTAVYYCAARTYTLRGVYFSGYNYWGQGTQVTVSS” it is “low polyreactivity”.
The entry for “QVQLVESGGGLVQAGGSLRLSCAASGFIFARYAMGWYRQAPGKERELVARITTGDSTYYADSVKGRFTISRDNAKNTVYLQMNSLKPEDTAVYYCAADDNVSVVGLYYWGQGTQVTVSS” is “low polyreactivity”; for “QVQLVESGGGLVQAGGSLRLSCAASGFIFARYAMGWYRQAPGKERELVATISKSGGRTYYADSVKGRFTISRDNAKNTVYLQMNSLKPEDTAVYYCATRYSTTSPGDDYWGQGTQVTVSS” it is “high polyreactivity”.
On to “QVQLVESGGGLVQAGGSLRLSCAASGFIFASYAMGWYRQAPVKERELVAAISSCGGRTYYADSVKGRFTISRDNAKNTVNLQMNSLKPEDTAVYYCAADWRFTYDYWGQGTQVTVSS”, for which the “polyreactivity (PSR sort gate)” value is reported as “high polyreactivity”.
The entry for “QVQLVESGGGLVQAGGSLRLSCAASGFIFASYAMGWYRQATGKERELVAAITQSGGITYYADSVKGRFTISRDNAKNTVYLQMNSLKPEDTAVYYCNTPLMKRTTRGRERNYWGQGTQVTVSS” is “low polyreactivity”; for “QVQLVESGGGLVQAGGSLRLSCAASGFIFASYTMGWYRQAPGKERELVASISRRRGSTYYADSVKGRFTISRDIAKNTVYLQMNILKPEDTAVYYCAAERLTIDYDYWGQGTQVTVSS” it is “high polyreactivity”.
The entry for “QVQLVESGGGLVQAGGSLRLSCAASGFIFATNAMGWYIQAPGKERELVAAITWSGATTYYADSVKGRFTISRDNAKNTVYLQMNSLKPEDTAVYYCAARRYVYGSPYSTYRYGYWGQGTQVTVSS” is “high polyreactivity”.
The entry for “QVQLVESGGGLVQAGGSLRLSCAASGFIFATNPMGWYRQAPGKERELVAASSTYYADSVKGRFTISRDNAKNTVYLQMNSLKPEDTAVYYCNADRDSYIGFVDWAGEYWGQGTQVTVSS” is “low polyreactivity”.
